Laboratory results published in patent US20260176701A1 (BRIGHAM AND WOMEN S HOSPITAL, published 2026).
Values belong to the binder of their own block, whether it stands above or below them.

Tests used:
[1] = molecular target: T1, recombinant human ORF1p (LINE-1 open reading frame 1 protein, L1RP) (human, UniProt Q9UN81 1-338); assay: Simoa sandwich calibration curves, panels titled capture/detector; AEB against recombinant ORF1p (axis 0.001-1000 pg/mL, log-log); dotted line = limit of detection
T1 construct: Expressed in E. coli, tag cleaved, monodisperse homotrimer; Immobilized on the CM5 chip in SPR; also called trimeric ORF1p
T1 sequence: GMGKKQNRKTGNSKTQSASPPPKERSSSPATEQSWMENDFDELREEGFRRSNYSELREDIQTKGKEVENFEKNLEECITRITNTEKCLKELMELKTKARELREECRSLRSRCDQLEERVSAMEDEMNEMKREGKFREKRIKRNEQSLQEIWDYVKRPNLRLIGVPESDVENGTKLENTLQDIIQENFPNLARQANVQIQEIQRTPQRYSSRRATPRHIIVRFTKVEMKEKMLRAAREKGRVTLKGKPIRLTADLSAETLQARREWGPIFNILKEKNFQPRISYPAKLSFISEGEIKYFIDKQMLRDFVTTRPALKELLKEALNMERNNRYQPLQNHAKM

[2] = molecular target: T1, recombinant human ORF1p (LINE-1 open …); assay: screen of cloned llama nanobody candidates for binding to ORF1p
[3] = molecular target: T1, recombinant human ORF1p (LINE-1 open …); assay: Simoa sandwich, recombinant ORF1p at 40 pg/mL in diluent buffer, signal/background heat map; capture on the x axis, detector on the y axis
Protocol: ORF1p Simoa assays. Simoa assays were performed on an HD-X Analyzer (Quanterix Corp.), with all assay reagents and consumables loaded onto the instrument according to the manufacturer's instructions. 250,000 capture beads and 250,000 helper (non-conjugated) beads were used in each Simoa assay. A three-step assay configuration was used for the first- and second-generation assays, consisting of a 15-minute target capture step (incubation of capture beads with 100 μL sample), 5-minute incubation with detector reagent (0.3 μg/mL for both first- and second-generation assays), and 5-minute incubation with streptavidin-β-galactosidase (150 pM for first-generation assay; 300 pM for second-generation assays). The beads were washed with System Wash Buffer 1 (Quanterix Corp.) after each assay step. Upon the final wash cycle, the beads were loaded together with the fluorogenic enzyme substrate resorufin β-D-galactopyranoside into a 216,000-microwell array, which was subsequently sealed with oil. Automated imaging and counting of “on” and “off” wells and calculation of average enzyme per bead (AEB) were performed by the instrument. Calibration curves were fit using a 4PL fit with a 1/y² weighting factor, and the limit of detection (LOD) was determined as three standard deviations above the blank.
Signal/background was also determined for a number of the pairs by Simoa using recombinant ORF1p protein in diluent buffer; the results are shown in FIG. 15. When the rabbit monoclonal antibodies were used as capture and detector, the background was high. The best combinations were the rabbit monoclonal antibodies as capture/Ab6 detector; Nb5-5 capture/rabbit monoclonal antibodies detector; and 4H1 capture/rabbit monoclonal antibody detector pairs.

[4] = molecular target: T1, recombinant human ORF1p (LINE-1 open …); assay: ELISA screen of conditioned medium, then modified Simoa with Nb-5 or 4H1 beads and ORF1p
Excerpt: GenScript's MonoRab™ immunization and B cell cloning platform was used with purified, recombinant human ORF1p trimers. The 50 best-performing clones, determined by ELISA screening of the conditioned cell medium at multiple dilutions, were selected and used in a modified Simoa assay with two different detector beads (Nb-5, which is the C5 nanobody clone described above, or 4H1 (Sigma-Aldrich)). The ten best clones (62H12, 64C6, 33A8, 61A11, 36D12, 34H7, 50E9, 34C5, 55A6, and 42D10) all yielded up to 5-fold higher signal-to-noise than our best existing reagent, Ab6, (FIG. 13A).

binding result [1]: binds
B1: MT1035 (bispecific antibody)
nanobody concatemer: QVQLVESGGDLVQAGGSLRLSCAVSGGTSSNYGMGWFRQAPGKEREFVSSISWSGSRTLYSDSVKGRFTISRDNAKNTVDLQMNSLKPEDTAVYYCTAVREYRDYPQRDNFDYWGQGTQVTVSGGGGSGGGGSGGGGSGGGGSDAAARDAAARDAAARGGGGSGGGGSGGGGSGGGGSMAQVQLVESGGDLVQAGGSLRLSCAVSGGTSSNYGMGWFRQAPGKEREFVSSISWSGSRTLYSDSVKGRFTISRDNAKNTVDLQMNSLKPEDTAVYYCTAVREYRDYPQRDNFDYWGQGTQVTVSCGSGRCGSGRCGSGRCGSGRC
modifications: biotinylated on the C-terminal cysteine residues when used as detector
notes: also called Nb5-Nb5-7Cys anti-ORF1 Nb dimer 10 (long linker v2); 5-5-cys(long2)

binding result [2]: binds
B2: anti-ORF1 Nanobody 1 (Nb1) (VHH)
VHH: DVQLVESGGGLVQAGESLRLSCAASGRTLSSLNMAWFRQVPGKERDFVSLISRSGSTDYVHSVRGRFTISRDNAKNTVYLEMNSLKPEDTAVYYCAADDNYNGRYPFRDEYEYWGQGTQVTVSH
notes: Llama nanobody

binding result [1]: binds
B3: MT1032 (bispecific antibody)
nanobody concatemer: QVQLVESGGDLVQAGGSLRLSCAVSGGTSSNYGMGWFRQAPGKEREFVSSISWSGSRTLYSDSVKGRFTISRDNAKNTVDLQMNSLKPEDTAVYYCTAVREYRDYPQRDNFDYWGQGTQVTVSGGGGSGGGGSGGGGSGGGGSMAQVQLVESGGDLVQAGGSLRLSCAVSGGTSSNYGMGWFRQAPGKEREFVSSISWSGSRTLYSDSVKGRFTISRDNAKNTVDLQMNSLKPEDTAVYYCTAVREYRDYPQRDNFDYWGQGTQVTVSCGSGRCGSGRCGSGRCGSGRC
modifications: biotinylated on the C-terminal cysteine residues when used as detector
notes: also called Nb5-Nb5-7Cys anti-ORF1 Nb dimer 7 (short linker); Nb 5-5-cys (short)

binding result [3]: binds
B4: 62H12 (antibody, V domains shown)
VH: QSVKESGGRLVTPGTPLTLICTVSGFSLSRYAVGWVRQAPGKGLEWIGYIWSGGYTDYANWAKGRFTISKTSTTVDLKITSPTTEDTATYFCAREGDSDDYIYLNLWGPGTLVTVSS
VL: ALVMTQTPSSVSAAVGGTVTINCQASESISSYLAWYQQKSGQPPKLLIYRASTLASGVPSRFKGSGSGTEFTLTIGDLECADAATYYCQQGYTSFNVDKAFGGGTEVVVK
notes: Rabbit monoclonal antibody (GenScript MonoRab); also called 62H12-1; 62H2

binding result [4]: binds
B5: 50E9 (antibody, V domains shown)
VH: QSVEESGGRLVTPGTPLTLTCTVSGFSLSRHYMSWVRQAPGKGLEWIGIIYDDDNRDHASWAKGRFTISRTSTTVDLKITSPTTEDTATYFCARVYASYGYALNLWGQGTLVIVSS
VL: ALVMTQTPPSVSAAVGGTVTINCQASESITNWLAWYQQKPGQPPKLLIYDASKLASGVSSRFSGSGSGTQFTLTISRVQCDDAATYYCQQGYTWNNIDNVFGGGTEVVVK
notes: Rabbit monoclonal antibody; also called 50E9-2

binding result [1]: binds
B6: MT1036 (other)
nanobody concatemer: DVQLVESGGGLVQAGGSLRLSCAASGRTDDIYTMGWFRQGPGKEREFVAVISWSITRRSSITHYADSVKGRFTISGENAENTVYLQMNTLKPEDTAVYYCAAKTGYSGSMSSYQDYDSWGQGTQVTVSGGGGSGGGGSGGGGSGGGGSDAAARDAAARDAAARGGGGSGGGGSGGGGSGGGGSGSMAQVHLVESGGKLVQAGESLKLSCEVSGRTFSISGAGWFRQAPGKEREFVAAITWTGGYPYYDASVKGRFTISREDPDNTVYLSMNSLKPEDTAVYYCATRRAGDLDFSYAQQGRYDNWGQGTQVTVSCGSGRCGSGRCGSGRCGSGRC
modifications: biotinylated on the C-terminal cysteine residues when used as detector
notes: also called Nb2-Nb9-7Cys anti-ORF1 Nb dimer 11 (long linker v2); 2-9-cys(long2)

binding result [1]: binds
B7: MT1037 (bispecific antibody)
nanobody concatemer: QVQLVESGGDLVQAGGSLRLSCAVSGGTSSNYGMGWFRQAPGKEREFVSSISWSGSRTLYSDSVKGRFTISRDNAKNTVDLQMNSLKPEDTAVYYCTAVREYRDYPQRDNFDYWGQGTQVTVSGGGGSGGGGSGGGGSGGGGSDAAARDAAARDAAARGGGGSGGGGSGGGGSGGGGSGSMAQVHLVESGGKLVQAGESLKLSCEVSGRTFSISGAGWFRQAPGKEREFVAAITWTGGYPYYDASVKGRFTISREDPDNTVYLSMNSLKPEDTAVYYCATRRAGDLDFSYAQQGRYDNWGQGTQVTVSCGSGRCGSGRCGSGRCGSGRC
modifications: biotinylated on the C-terminal cysteine residues when used as detector
notes: also called Nb5-Nb9-7Cys anti-ORF1 Nb dimer 12 (long linker v2); 5-9-cys(long2)

binding result [1]: binds
B8: MT1038 (other)
nanobody concatemer: QVHLVESGGKLVQAGESLKLSCEVSGRTFSISGAGWFRQAPGKEREFVAAITWTGGYPYYDASVKGRFTISREDPDNTVYLSMNSLKPEDTAVYYCATRRAGDLDFSYAQQGRYDNWGQGTQVTVSGGGGSGGGGSGGGGSGGGGSDAAARDAAARDAAARGGGGSGGGGSGGGGSGGGGSGSMAQVHLVESGGKLVQAGESLKLSCEVSGRTFSISGAGWFRQAPGKEREFVAAITWTGGYPYYDASVKGRFTISREDPDNTVYLSMNSLKPEDTAVYYCATRRAGDLDFSYAQQGRYDNWGQGTQVTVSCGSGRCGSGRCGSGRCGSGRC
modifications: biotinylated on the C-terminal cysteine residues when used as detector
notes: also called Nb9-Nb9-7Cys anti-ORF1 Nb dimer 13 (long linker v2); 9-9-cys(long2)
